Changes are numbered by the printed parent chain.

The labels stand for the following.
B1: UGT76G1var8: UGT76G1 variant, mutations E224A_Q266S_Q342E (protein, UniProt Q6VAB4 1-458, looked up, variant E224A Q266S Q342E)
UDP-glycosyltransferase 76G1: MENKTETTVRRRRRIILFPVPFQGHINPILQLANVLYSKGFSITIFHTNFNKPKTSNYPHFTFRFILDNDPQDERISNLPTHGPLAGMRIPIINEHGADELRRELELLMLASEEDEEVSCLITDALWYFAQSVADSLNLRRLVLMTSSLFNFHAHVSLPQFDELGYLDPDDKTRLEEQASGFPMLKVKDIKSAYSNWQILKEILGKMIKQTKASSGVIWNSFKALEESELETVIREIPAPSFLIPLPKHLTASSSSLLDHDRTVFSWLDQQPPSSVLYVSFGSTSEVDEKDFLEIARGLVDSKQSFLWVVRPGFVKGSTWVEPLPDGFLGERGRIVKWVPQEEVLAHGAIGAFWTHSGWNSTLESVCEGVPMIFSDFGLDQPLNARYMSDVLKVGVYLENGWERGEIANAIRRVMVDEEGEYIRQNARVLKQKADVSLMKGGSSYESLESLVSYISSL
B2: UGT76G1var9: UGT76G1 variant, mutations E231A_D301N_G348P (protein, UniProt Q6VAB4 1-458, looked up, variant E231A D301N G348P)
UDP-glycosyltransferase 76G1: B1 UDP-glycosyltransferase 76G1 with A224E, E231A, S266Q, D301N, E342Q, G348P
B3: UGT76G1var10: UGT76G1 variant, mutations A33G_L246F_Q342E (protein, UniProt Q6VAB4 1-458, looked up, variant A33G L246F Q342E)
UDP-glycosyltransferase 76G1: B1 UDP-glycosyltransferase 76G1 with A33G, A224E, L246F, S266Q
B4: UGT76G1var21: UGT76G1 variant, mutations A239V_V300A_K303G (protein, UniProt Q6VAB4 1-458, looked up, variant A239V V300A K303G)
UDP-glycosyltransferase 76G1: B1 UDP-glycosyltransferase 76G1 with A224E, A239V, S266Q, V300A, K303G, E342Q
B5: UGT76G1var11: UGT76G1 variant, mutations F22L_A33G_V310I (protein, UniProt Q6VAB4 1-458, looked up, variant F22L A33G V310I)
UDP-glycosyltransferase 76G1: B1 UDP-glycosyltransferase 76G1 with F22L, A33G, A224E, S266Q, V310I, E342Q
B6: UGT76G1var12: UGT76G1 variant, mutations L243P_K303G_A352G (protein, UniProt Q6VAB4 1-458, looked up, variant L243P K303G A352G)
UDP-glycosyltransferase 76G1: B1 UDP-glycosyltransferase 76G1 with A224E, L243P, S266Q, K303G, E342Q, A352G
B7: UGT76G1var17: UGT76G1 variant, mutations F265L_Q266E_Q342K (protein, UniProt Q6VAB4 1-458, looked up, variant F265L Q266E Q342K)
UDP-glycosyltransferase 76G1: B1 UDP-glycosyltransferase 76G1 with A224E, F265L, S266E, E342K
B8: UGT76G1var20: UGT76G1 variant, mutations S375M_K393G_Y397E (protein, UniProt Q6VAB4 1-458, looked up, variant S375M K393G Y397E)
UDP-glycosyltransferase 76G1: B1 UDP-glycosyltransferase 76G1 with A224E, S266Q, E342Q, S375M, K393G, Y397E
B9: UGT76G1var18: UGT76G1 variant, mutations L243P_S274G_N409R (protein, UniProt Q6VAB4 1-458, looked up, variant L243P S274G N409R)
UDP-glycosyltransferase 76G1: B1 UDP-glycosyltransferase 76G1 with A224E, L243P, S266Q, S274G, E342Q, N409R
B10: UGT76G1var15: UGT76G1 variant, mutations F41L_L246F_Q425E (protein, UniProt Q6VAB4 1-458, looked up, variant F41L L246F Q425E)
UDP-glycosyltransferase 76G1: B1 UDP-glycosyltransferase 76G1 with F41L, A224E, L246F, S266Q, E342Q, Q425E
B11: UGT76G1var23: UGT76G1 variant, mutations T263S_G348P_A352G (protein, UniProt Q6VAB4 1-458, looked up, variant T263S G348P A352G)
UDP-glycosyltransferase 76G1: B1 UDP-glycosyltransferase 76G1 with A224E, T263S, S266Q, E342Q, G348P, A352G
B12: UGT76G1var19: UGT76G1 variant, mutations E224D_E229A_Q432E (protein, UniProt Q6VAB4 1-458, looked up, variant E224D E229A Q432E)
UDP-glycosyltransferase 76G1: B1 UDP-glycosyltransferase 76G1 with A224D, E229A, S266Q, E342Q, Q432E
B13: UGT76G1var14: UGT76G1 variant, mutations A239I_F265I_V396F (protein, UniProt Q6VAB4 1-458, looked up, variant A239I F265I V396F)
UDP-glycosyltransferase 76G1: B1 UDP-glycosyltransferase 76G1 with A224E, A239I, F265I, S266Q, E342Q, V396F
B14: UGT76G1var26: UGT76G1 variant, mutations S241I_F265L_F377C (protein, UniProt Q6VAB4 1-458, looked up, variant S241I F265L F377C)
UDP-glycosyltransferase 76G1: B1 UDP-glycosyltransferase 76G1 with A224E, S241I, F265L, S266Q, E342Q, F377C
B15: UGT76G1var24: UGT76G1 variant, mutations A239I_P272A_Q425E (protein, UniProt Q6VAB4 1-458, looked up, variant A239I P272A Q425E)
UDP-glycosyltransferase 76G1: B1 UDP-glycosyltransferase 76G1 with A224E, A239I, S266Q, P272A, E342Q, Q425E
B16: UGT76G1var16: UGT76G1 variant, mutations F265I_P272A_I335V (protein, UniProt Q6VAB4 1-458, looked up, variant F265I P272A I335V)
UDP-glycosyltransferase 76G1: B1 UDP-glycosyltransferase 76G1 with A224E, F265I, S266Q, P272A, I335V, E342Q
B17: UGT76G1var25: UGT76G1 variant, mutations T284L_Q342K_Y397Q (protein, UniProt Q6VAB4 1-458, looked up, variant T284L Q342K Y397Q)
UDP-glycosyltransferase 76G1: B1 UDP-glycosyltransferase 76G1 with A224E, S266Q, T284L, E342K, Y397Q
B18: UGT76G1var13: UGT76G1 variant, mutations L243A_S357C_A385T (protein, UniProt Q6VAB4 1-458, looked up, variant L243A S357C A385T)
UDP-glycosyltransferase 76G1: B1 UDP-glycosyltransferase 76G1 with A224E, L243A, S266Q, E342Q, S357C, A385T
B19: UGT76G1var22: UGT76G1 variant, mutations E231A_V310I_R334K (protein, UniProt Q6VAB4 1-458, looked up, variant E231A V310I R334K)
UDP-glycosyltransferase 76G1: B1 UDP-glycosyltransferase 76G1 with A224E, E231A, S266Q, V310I, R334K, E342Q

This data set is described as follows: Directed evolution of UGT76G1, conversion of Rebaudioside D to Rebaudioside M (round 1). The data set is classed as biochemical. The conditions noted are these: 0.5 mM Rebaudioside D, 2.5 mM UDP-Glucose, 100 μL fresh lysate, 30° C., pH 7.2. The text has this: Starting from the amino acid sequence of UGT76G1, as is described in Genbank (AAR06912.1), different mutations at various amino acid positions were identified that could alter the activity of the enzyme for the transformation of Rebaudioside D (Reb D) to Rebaudioside M (Reb M). This list of mutations, designed by DNA2.0 ProteinGPS™ strategy, was subsequently used to synthesize 96 variant genes that contained 3, 4 or 5 of these mutations that were codon-optimized for expression in E. coli. The genes were subcloned in the pET30a+ plasmid and used for transformation of E. coli BL21 (DE3) chemically competent cells. The obtained cells were grown in Petri-dishes on solid LB medium in the presence of Kanamycin. Suitable colonies were selected and allowed to grow in liquid LB medium in tubes. Glycerol was added to the suspension as cryoprotectant and 400 μL aliquots were stored at −20° C. and at −80° C.
These storage aliquots of E. coli BL21(DE3) containing the pET30a+_UGT76G1var plasmids were thawed and added to LBGKP medium (20 g/L Luria Broth Lennox; 50 mM PIPES buffer pH 7.00; 50 mM Phosphate buffer pH 7.00; 2.5 g/L glucose and 50 mg/L of Kanamycine). This culture was allowed to shake in a 96 microtiter plate at 135 rpm at 30° C. for 8 h.
3.95 mL of production medium containing 60 g/L of Overnight Express™ Instant TB medium (Novagen®), 10 g/L of glycerol and 50 mg/L of Kanamycin was inoculated with 50 μL of above described culture. In a 48 deepwell plate the resulting culture was allowed to stir at 20° C. The cultures gave significant growth and a good OD (600 nm; 1 cm) was obtained. After 44 h, the cells were harvested by centrifugation and frozen.
Lysis was performed by addition of Bugbuster® Master mix (Novagen®) to the thawed cells and the lysate was recovered by centrifugation. Activity tests were performed with 100 μL of fresh lysate that was added to a solution of Rebaudioside D (final concentration 0.5 mM), MgCl2 (final concentration 3 mM) and UDP-Glucose (final concentration 2.5 mM) in 50 mM phosphate buffer pH 7.2.
The reaction was allowed to run at 30° C. and samples were taken after 2, 4, 7 and 24 h. to determine conversion and initial rate by HPLC (CAD detection) using the analytical method that was described above for the transformation of Rebaudioside D to Rebaudioside M. The results are depicted in the following table.
With B1, the “Conversion Reb D to Reb M after 24 h (%)” value came to 0.5% and the “initial rate (Reb M area/min)” value is recorded as 2.3E+04 Reb M area/min.
Taken in the same sequence, the figures for B2 were 52.0% and 4.9E+07 Reb M area/min.
In the case of B3, the “Conversion Reb D to Reb M after 24 h (%)” value is recorded as 0.3% and the “initial rate (Reb M area/min)” value is recorded as −7.7E+02 Reb M area/min.
The corresponding values for B4 are 41.9% and 3.3E+07 Reb M area/min.
The corresponding values for B5 are 0.4% and 3.8E+04 Reb M area/min.
Taken in the same sequence, the figures for B6 were 0.5% and 8.7E+04 Reb M area/min.
With B7, the “Conversion Reb D to Reb M after 24 h (%)” value is reported as 0.7% and the “initial rate (Reb M area/min)” value is listed as 7.2E+05 Reb M area/min.
The corresponding values for B8 are 1.8% and 1.9E+06 Reb M area/min.
Taken in the same sequence, the figures for B9 were 1.9% and 5.0E+05 Reb M area/min.
The corresponding values for B10 are 5.6% and 1.5E+06 Reb M area/min.
For B11, the “Conversion Reb D to Reb M after 24 h (%)” value is on record as 47.8% and the “initial rate (Reb M area/min)” value is listed as 4.1E+07 Reb M area/min.
Taken in the same sequence, the figures for B12 were 10.5% and 5.5E+06 Reb M area/min.
The corresponding values for B13 are 5.3% and 1.5E+06 Reb M area/min.
Taken in the same sequence, the figures for B14 were 1.8% and 7.5E+05 Reb M area/min.
Take B15: the “Conversion Reb D to Reb M after 24 h (%)” value is 31.0% and the “initial rate (Reb M area/min)” value is given as 2.1E+07 Reb M area/min.
The corresponding values for B16 are 18.6% and 5.8E+06 Reb M area/min.
The corresponding values for B17 are 0.9% and 6.3E+04 Reb M area/min.
Taken in the same sequence, the figures for B18 were 0.2% and −3.3E+04 Reb M area/min.
With B19, the “Conversion Reb D to Reb M after 24 h (%)” value came to 34.4% and the “initial rate (Reb M area/min)” value is on record as 2.4E+07 Reb M area/min.

These data come from US20170275666A1, “Methods for Preparing Rebaudioside I and Uses” (The Coca-Cola Company, priority 2014, published 2017).
